In the DeepSol protein solubility set:

test: soluble on expression in E. coli; label from the status in PepcDB or PDB records

Soluble on expression in E. coli, not soluble:
MGSDKIHHHHHHMLISVVLPAYNVQDTIGESIDSILSQTFTDFELIIINDGSQDNTEEVIHAYSDKRIRYYRNEKNEGLIYTLNRGLDLAQGKYIARMDADDVSLPTRFEKQVKVMEESPNIVVCGTQIILFGVDTAKRFTLFLPEESEDLKNLLFIQTCFAHPTVMVRRQVLIDNEVRYDADYPHAEDYKMWIDLSLLGEFYNIQEPLLRYRLSDGQVSHKFSDVQKRTASACRRFLISARFKDEKLDRQIENSIDISTICYIKKKEYPRELLEVLYSSLRKYNFKCLCYLFVSGDIFRFEIVVALALLKRFIIKKDRLL
FNDWYVSARANFTYNRNKKLYDDKPTPIWPYQSEAGFAYRQQRGLIALGLFESEEDIANSPKQNFGNVRPGDIKYKDINGDNVIDAYDKVAIGYTDVPEINYGFGISLGWKGFDASLFMQGVGNVTRIIGGDALYGASDNIERLGQIYADVAEKRWTTSNPNPNATYPRLSMSKVENNLQPSTYWQRNMSFLRLKNVEIGYTLPKHIYKRLGMSSIRVYAQGVNLLTFSKFKLWDPELDSNYGNIYPQMRTITLGLNLNF
MGFKTVAKEEKQQLVANVFHSVAAKYDLMNDLLSFGIHRIWKRFTIDCSGVRKGQKVLDLAGGTGDFSAKFSRIVGETGQVVLADINSSMLEVGRDKLRNLGVVGNINYVQANAEHLPFADNTFDCVVISFGLRNVTDKDKALKSMYRVLKPGGRLLVLEFSKPIFDPISQLYNFYSFNILPKVGGIVVNDAESYRYLAESIRMHPKQDELKTMMEHAGFESVNYYNLSAGIVALHRGYKLEHHHHHH
MGHHHHHHSHIAELYGAVLWGETVHLFMEAGEGGSVLEKLESCGPMREFEIIWVTKHVLKGLDFLHSKKVIHHDIKPSNIVFMSTKAVLVDFGLSVQMTEDVYFPKDLRGTEIYMSPEVILCRGHSTKADIYSLGATLIHMQTGTPPWVKRYPRSAYPSYLYIIHKQAPPLEDIADDCSPGMRELIEASLER
MEATRNETKPVWVYIIFRKNHCSGHEKMTVNISFDGPIFWKRQVAYIYCCSCHFDEHEGPLMAILEKFEQRVERVCLVDKPVDYPFLPDSLFSYMANKMPKLQFIYLRELDLEKINRGTVVELANHPNLKKVIVHLCRNYEVLEDFRNLPQLLVVKGEIMGLKVSTW
MGSDKIHHHHHHMPKTISEQNLLRLIDTLVNEGKRVIGPKAAGTMTLYEPLATGEELNLGELPRRSAKETFFPLCETILTYERDREGVRVTDVDPGAIPETVLVAARPCDVAAAPVLDSVFSWDYQDEFYLSRRGKTTIIGLACARADDACFCTAVGLSTNDTKGSDLFLTTLTGGGYRCDVITDKGMALLAAHGGLFAEGDGTPAPLAEPALGKLDLEKIKQWLDNHFEDPLWEEIAERCAGCGACAFLCPACHCFDINDEGGEKKGARRKSWDACGFGKFTNHASGHNPRDVQPQRYRNRIMHKFKYYVDKFDQRLCTGCGRCIRACPVGIDIAEILSAIGTRDQGPGTGKD
MEIATRLKMNVKEQTEVILTNFTKMLFRRKLIKDQQSLLNKLKNIDTKDIYHFKENDMNFLLIITFQKLNGIKKGSEIEEQLIKSKGYNFIIASQSSNKTYQQVKNFKGELFLTLEFLSDIPSLPFVPEHILLSEKEKEEILSVYKEKNIAKIFVTDMMARYLGAKKGDLIKIIRKTLNTGESIYYRRVF
MGSDKIHHHHHHMYQPISIVNIYYQGFGDKRLIGKLTMDGRRPTFGYDAAWLADGLELSPIEMPLRSAPYYGSHASSHYLCGLLSDSLPDGWGMLLMDRFFRRTISNTAPVNILDRLAYIGDSAMGALSFEPQHDLSANVIDMSELTLAKLAAANQTILSGQDSDILAELIVIGGSPQGARPKALVLYDESSDFITTDTASKNPSATSWLIKFPAQSEHKSVCLLEALYADMAKKAGLNMPMHHYFDIDSEYAAFGVERFDRMGNQRVHIHTLAGLLDIDFRIPSLDYLQYLRCVRMLTQSQLAVESAFKHAVFNVIFNNKDDHSKNFSFMMNEAGSWSLSPVYDLAYNSGMNGYHQMDVAGEARYPTLSHLLKLAKLADIKQNKAQAIIDQVASVAEDFLTVINDHDIEKELSNRVIQDIKANINRMVS
MLLSPPTNCRFFCFLYFPKVSSSSWEEDGFDARTLLSTPTDSSGFSLYVFSVLFCFSNLL
GPGSMDTQGIRAVSEYVARGHGSGIVWAWCAASPAAFASMINSPSRTRQAAHERSVHYLSSYEQKSGCVCTVRVDRMGITLNEFHHTVPLWLVTWHTQLLYRLFGPVGVAVHVTDLDSLVLNSLLSAWEGTPVQVTALTSRHRLSTCVSAHRRSTGRVFSVLAGLQDLVLLPSPSVHGSLVVAEYAPLLRRVTASKCCVEYLKPLSQLQHLQEVQLSQTLIRDAELRILAQLPLLTTLDVSSCPHLSSLEPLACAASLRILRASSCERLMLVAQLGTLATLRIVDLSGNVFRPTEFASFITQPTLHLQAGYFAHMRWPRDDPPSTQVLGSVKHLHLSYGTVPNIRWLCGAHSLEQLCLDHTNVTAVDMAVLVQHTPLLSVLSLSYCEHLHTNLDFTRSLHFLAMLTITRSSLPSPFLELVELQQSLSLTLS
MGHHHHHHSHMEPRVTQRKRPLDGCMGKITGITSDILKYDHKCFKLSLPAKFPEVCGSDEVFPDPDLLHVLPVAGSLQQSIDQCCLQLESLCRPGLLCAHPTLLFKLHSSMKNRPFFSLIYTYVKKTQQVRKRDRKPRGQVAAGPNPTSVM
MKLRASVLIGATILCLILSACSNYAKKVVKQKNHVYTPVYNELIEKYSEIPLNDKLKDTPFMVQVKLPNYKDYLLDNKQVVLTFKLVHHSKKITLIGDANKILQYKNYFQANGARSDIDFYLQPTLNQKGVVMIASNYNDNPNSKEKPQTFDVLQGSQPMLGANTKNLHGYDVSGANNKQVINEVAREKAQLEKINQYYKTLLQDKEQEYTTRKNNQREILETLSNRAGYQMRQNVISSEIFKNGNLNMQAKEEEVREKLQEERENEYLRNQIRSLLSGK

Soluble on expression in E. coli, soluble:
MDRDWGGKTGGGGVASSEQTEVSRRERLRQLALETIDLKKDPYFMRNHLGGYECKLCLTLHTNEGNYLAHTQGRRHQMNLARRAAREAKEKPQTVAPPPKIVPKKTIKIGRPGYRIIKQRDPETDQLSLLFQIQYPEIAEDVQPRHRFMSSFEQKVERPDPKYQFLLFAAEPYETIAFKIPNWEIEKSEGNYYLHWDKDNKTFTLQIYFKPRSQPPVKNQQEIPSQQASVGNLMKQQRDPFAPIAFGT
AIADEVKECLRDFPKEARELYLNDAVPYLDEPLSPLQFYRDWIGPNKPCIIRNAFNDWPALSKWNPTYLREKVGSKVISVAVTPNGFADAVNGNRFVMPEERQMSFSSLLDIVEGKIKSSAVFYVQKQCSNLMEEIPELTGDVQTHIPWMSEALGKLPDAVNFWLGEESAVTSMHKDHYENLYCVISGQKEFILLPPTDRPFIPYELYQPATYRQKDDGTFEIVDEENSPKVPWIPLDPLKPDFERFPSYRHAKALHCTVKAGEMLYLPSLWFHHVRQSHGCIAVNFWYDMEYDIKYNYFQLVEALTNAVGSL
GMQMNNHIRLRKAEGKWVIRTDSAVLGETLNAIELTEGSRDPVIYFPREDVAMVMFDKSEKVTACPLKGEASYYSIVGASGTLKDAAWSYESPKEGLEAIAGYLAFAPDCTKVGQY
MDAKHIEKVFVKKVPAKSNKAQVKYPFDENSVNVLIIGLDKASNRSTYDLHRTDTILFLNINFKDKKVKGISIPRDTLTEIYKVGKWDKINSAFGYGGGEKEEGFFYTMETVSKLLGGMPIEYYVGFDLDAVRKVVNILGGVYVNVEVPVKVKTKWVNIDLKPGYQKLNGIETLYYALWRKTPGGDIDRIKRDKELILSVFEQLKESNKIITLPEIYWKIRRHFYTNLSLQQITSLAYFAQNMKKEDIVFESIPGDYFNYMGVSYWKPDYEGIKKLVKDLFGYDIEIDLKMPEKYKYARRIIVKAKKENNISYSHTNKSYSTESSQNQNSQSNSEVNLVQKQTETIENSTQSSSPFDAQWRNSSEDTQTLPPENDSQTTQGTQQQQATTESEIQVDTPSTSSDVVSNVYGGRLEHHHHHH
MSLSRVRLVIAQCTVDYIGRLTAHLPSARRLLLFKADGSVSVHADDRAYKPLNWMSPPCWLTEESGGQAPVWVVENKAGEQLRITIEGIEHDSSHELGVDPGLVKDGVEAHLQALLAEHIQLLGEGYTLVRREYMTAIGPVDLLCSDERGGSVAVEIKRRGEIDGVEQLTRYLELLNRDSVLAPVKGVFAAQQIKPQARILATDRGIRCLTLDYDTMRGMDSGEYRLFEGHHHHHH
